Test results from patent US8003596B2, “P-selectin targeting ligand and compositions thereof” (Astellas Pharma Inc., priority 2003, dated 2011).
Blank lines part the entries; values can stand above or below the molecule they belong to. Where no end group is shown, it is not given here.

Assays:
[1] = target: T1, human P-selectin/IgG-Fc (Homo sapiens, UniProt P16109); experiment: Competition assay: displacement of TM11-PO complex from immobilised human P-selectin/IgG-Fc; assay type: binding; conditions: competition with TM11-PO; free peptide; read-out: IC50 (affinity for P-selectin)
T1 construct: purchased R&D Systems Europe Ltd., Abingdon, United Kingdom
Procedure: (§1) TM11-PO, a tetrameric TM11/strepPO complex described by Molenaar et al. (Blood 100: 3570-3577 (2002)), was freshly prepared by incubating streptavidin-peroxidase (Amersham Life Science, Little Chalfont, United Kingdom) (strep-PO; 8.4 μl, 2.0 μM) and biotin-CDVEWVDVSSLEWDLPC (SEQ ID NO: 2; synthesized by Dr. Vander Zee, Department of Immunology, University of Utrecht, Utrecht, the Netherlands) (TM11-biotin; 1.5 μl 190 mM) for 2 hours at room temperature in assay buffer (20 mM HEPES, 150 mM NaCl, 1 mM CaCl2, pH 7.4). For competition studies, a 96 wells microtiter plate (high binding, flat bottom, Costar, Corning, U.S.A) was coated overnight at 4° C. with 10 μg/ml goat anti-human IgG (Sigma-Aldrich, Zwijndrecht, the Netherlands) in coating buffer (50 mM NaHCO3, pH 9.6). Subsequently, wells were washed with assay buffer and incubated for 1 hour at 37° C. with blocking buffer (3% BSA in assay buffer). After washing with assay buffer the wells were incubated for 2 hours at 37° C. with human P-selectin/IgG-Fc (R&D Systems Europe Ltd., Abingdon, United Kingdom) (0.3 μg/ml). Subsequently, wells were washed with assay buffer and incubated for 1 hour at 4° C. with the TM11-PO complex. The wells were washed six times with washing buffer (0.1% Tween 20 in assay buffer). […] The reaction was halted by addition of 2 M H2SO4 and the absorbance was measured at 450 nm.

[2] = target: T2, human P-selectin/IgG-Fc (R&D Systems) (human), P16109; experiment: competition ELISA against TM11-PO on captured human P-selectin/IgG-Fc
T2 chain: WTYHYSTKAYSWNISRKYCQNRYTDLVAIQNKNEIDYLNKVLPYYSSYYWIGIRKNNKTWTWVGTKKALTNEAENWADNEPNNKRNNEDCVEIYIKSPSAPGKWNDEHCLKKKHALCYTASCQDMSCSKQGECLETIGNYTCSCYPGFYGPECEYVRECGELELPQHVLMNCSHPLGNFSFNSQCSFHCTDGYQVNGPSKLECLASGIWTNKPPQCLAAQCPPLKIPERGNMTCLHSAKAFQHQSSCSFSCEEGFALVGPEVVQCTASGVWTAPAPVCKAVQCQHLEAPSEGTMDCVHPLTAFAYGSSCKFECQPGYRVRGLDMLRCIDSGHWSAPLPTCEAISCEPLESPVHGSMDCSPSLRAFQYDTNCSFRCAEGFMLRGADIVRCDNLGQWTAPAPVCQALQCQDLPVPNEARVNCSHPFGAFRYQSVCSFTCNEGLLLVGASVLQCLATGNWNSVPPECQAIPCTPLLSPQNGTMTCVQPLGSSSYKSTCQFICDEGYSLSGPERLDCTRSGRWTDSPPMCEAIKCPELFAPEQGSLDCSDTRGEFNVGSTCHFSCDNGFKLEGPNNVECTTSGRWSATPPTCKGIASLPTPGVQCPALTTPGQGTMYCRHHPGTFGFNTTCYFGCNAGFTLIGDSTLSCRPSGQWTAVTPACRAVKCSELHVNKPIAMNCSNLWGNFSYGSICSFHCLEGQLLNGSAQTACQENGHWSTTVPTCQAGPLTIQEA

[3] = target: T3, human P-selectin/IgG-Fc (R&D Systems) (human, UniProt P16109 42-771); experiment: as above
T3 construct: It was captured on plates coated with goat anti-human IgG; not shown: IgG Fc; it was captured by goat anti-human IgG
T3 sequence (looked up): T2 chain
Procedure: as §1, with “The affinity of the liposomal drug delivery system prepared in example 2 was evaluated using a competition assay. TM11-PO,” for “TM11-PO,”, “biotin-[…]” for “biotin-CDVEWVDVSSLEWDLPC”, “CaCl_2,” for “CaCl2,”, “NaHCO_3,” for “NaHCO3,”, “complex.” for “complex. The wells were washed six times with washing buffer (0.1% Tween 20 in assay buffer).”, “H_2SO_4” for “H2SO4”

[4] = target: T4, human P-selectin on CHO cells stably transfected with human P-selectin (CHO-P cells) (human, UniProt P16109 42-830); experiment: cell-based or functional assay
T4 sequence (looked up): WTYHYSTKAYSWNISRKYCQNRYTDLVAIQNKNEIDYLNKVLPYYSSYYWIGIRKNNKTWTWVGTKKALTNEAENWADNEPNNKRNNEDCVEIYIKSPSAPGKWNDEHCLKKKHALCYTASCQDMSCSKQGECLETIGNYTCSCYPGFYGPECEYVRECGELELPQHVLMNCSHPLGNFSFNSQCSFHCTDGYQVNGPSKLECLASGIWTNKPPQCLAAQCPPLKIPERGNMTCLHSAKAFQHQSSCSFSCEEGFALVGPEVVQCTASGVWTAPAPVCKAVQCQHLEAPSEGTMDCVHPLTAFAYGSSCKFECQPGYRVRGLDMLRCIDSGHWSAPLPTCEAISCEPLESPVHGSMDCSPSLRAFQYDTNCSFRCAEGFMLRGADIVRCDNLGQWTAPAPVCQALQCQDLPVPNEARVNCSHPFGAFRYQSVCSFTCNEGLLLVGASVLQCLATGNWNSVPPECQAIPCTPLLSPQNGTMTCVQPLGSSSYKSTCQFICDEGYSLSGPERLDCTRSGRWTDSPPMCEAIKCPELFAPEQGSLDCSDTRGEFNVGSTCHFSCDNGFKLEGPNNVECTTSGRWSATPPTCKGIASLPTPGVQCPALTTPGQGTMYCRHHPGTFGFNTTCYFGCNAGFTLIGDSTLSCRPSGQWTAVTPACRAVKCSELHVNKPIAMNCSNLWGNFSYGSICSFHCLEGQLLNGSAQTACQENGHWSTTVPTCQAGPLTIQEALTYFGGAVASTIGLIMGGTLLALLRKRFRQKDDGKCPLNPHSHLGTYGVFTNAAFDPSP

T1 sequence (P16109 with tags, fused parts or gaps limits assumed): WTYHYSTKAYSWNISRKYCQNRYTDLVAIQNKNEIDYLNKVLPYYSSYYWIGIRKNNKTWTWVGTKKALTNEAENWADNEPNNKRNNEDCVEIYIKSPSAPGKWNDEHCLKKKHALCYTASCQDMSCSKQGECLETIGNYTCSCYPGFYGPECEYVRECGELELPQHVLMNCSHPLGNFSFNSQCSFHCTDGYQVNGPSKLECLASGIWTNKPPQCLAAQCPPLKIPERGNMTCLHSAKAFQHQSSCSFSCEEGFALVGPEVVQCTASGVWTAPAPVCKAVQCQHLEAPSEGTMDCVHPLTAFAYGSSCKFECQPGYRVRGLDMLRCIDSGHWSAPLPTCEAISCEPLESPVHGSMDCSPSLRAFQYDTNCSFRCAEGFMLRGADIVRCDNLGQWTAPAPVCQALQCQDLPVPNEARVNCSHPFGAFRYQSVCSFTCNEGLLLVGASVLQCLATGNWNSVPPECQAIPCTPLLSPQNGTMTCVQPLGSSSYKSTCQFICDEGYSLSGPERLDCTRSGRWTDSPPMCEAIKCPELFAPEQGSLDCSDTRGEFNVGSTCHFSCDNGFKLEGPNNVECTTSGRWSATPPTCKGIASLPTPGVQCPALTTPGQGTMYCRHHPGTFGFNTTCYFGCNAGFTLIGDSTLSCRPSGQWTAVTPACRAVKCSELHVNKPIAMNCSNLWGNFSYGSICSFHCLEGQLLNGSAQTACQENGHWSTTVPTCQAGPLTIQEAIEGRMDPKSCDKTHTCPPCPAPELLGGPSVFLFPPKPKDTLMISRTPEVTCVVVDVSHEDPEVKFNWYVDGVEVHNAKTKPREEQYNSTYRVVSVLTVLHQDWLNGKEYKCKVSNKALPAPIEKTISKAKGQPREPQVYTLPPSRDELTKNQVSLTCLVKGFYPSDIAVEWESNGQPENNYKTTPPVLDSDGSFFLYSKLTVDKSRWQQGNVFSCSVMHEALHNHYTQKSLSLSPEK

B1: P100 liposomes: liposomes carrying 100 DSPE-PEG3400-(125I)-Pstar conjugates per liposome (other)
peptide: DVEWVDVSY
modifications: not fully specified; also: 125I label (ICl method)
notes: About 70 nm EYPC/cholesterol liposome; The peptide-PEG-lipid conjugate is anchored in its surface together with DSPE-PEG2000 (5 mole % in total); also called LP100
- IC50 [3]: 0.00078 µM

B2: P500 liposomes: liposomes carrying 500 DSPE-PEG3400-(125I)-Pstar conjugates per liposome (other)
peptide: DVEWVDVSY
modifications: not fully specified; also: 125I label (ICl method)
notes: About 70 nm EYPC/cholesterol liposome; The peptide-PEG-lipid conjugate is anchored in its surface together with DSPE-PEG2000 (5 mole % in total); also called LP500
- IC50 [3]: 0.00034 µM
- relative transfection (glucocorticoid responsive element-driven Firefly luciferase, corrected by Renilla luciferase) in CHO-P cells [4]: 5 fold

Continued, values first:

- IC50 [1]: 7 µM
Molecule: H-DVEWVDVSY-OH [Pstar, H2N-DVEWVDVSY-COOH]

- IC50 [2]: 7 µM
Molecule: DVEWVDVSY (modifications not checked) [human P-selectin binding peptide H2N-…-COOH (Pstar)]
